Test results as given in US20020137891A1, “Protein scaffold and its use to multimerise monomeric polypeptides” (priority 1999, published 2002).

B1: GroEL(191-376): monomeric minichaperone, apical domain of GroEL residues 191 to 376, sht removed by thrombin cleavage (protein, UniProt P0A6F5 191-376, looked up, fragment)
chain: EGMQFDRGYLSPYFINKPETGAVELESPFILLADKKISNIREMLPVLEAVAKAGKPLLIIAEDVEGEALATLVVNTMRGIVKVAAVKAPGFGDRRKAMLQDIATLTGGTVISEEIGMELEKATLEDLGQAKRVVINKDTTTIIDGVGEEAAIQGRVAQIRQQIEEATSDYDREKLQERVAKLAGGV
modifications: apical domain
notes: monomeric minichaperone, apical domain of GroEL residues 191 to 376, sht removed by thrombin cleavage
B2: GroEL(191-345): GroEL(191-345) minichaperone monomer (protein, UniProt P0A6F5 191-345, looked up, fragment)
chain: EGMQFDRGYLSPYFINKPETGAVELESPFILLADKKISNIREMLPVLEAVAKAGKPLLIIAEDVEGEALATLVVNTMRGIVKVAAVKAPGFGDRRKAMLQDIATLTGGTVISEEIGMELEKATLEDLGQAKRVVINKDTTTIIDGVGEEAAIQGR
modifications: apical domain
notes: GroEL(191-345) minichaperone monomer

What was measured:
bacteriophage λ (b2cI) = assay: Growth (plaque formation) of bacteriophage λ at 30° C. in transformed wild-type and groEL mutant strains; type: cell-based, E. coli
Text: Bacterial and bacteriophage strains. The E. coli strains used in this study were: C41(DE3), a mutant of BL21(DE3) capable of expressing toxic genes (Miroux, B. & Walker, J. E. (1996) J. Mol. Biol. 260, 289-298); SV2 (B178groEL44), SV3 (B178groEL59) and SV6 (B178groEL673): isogenic strains carrying temperature-sensitive alleles of groEL; SV1(=B178) (Georgopoulos, C., Hendrix, R. W., Casjens, S. R. & Kaiser, A. D. (1973) J. Mol. Biol. 76, 45-60), AI90 (ΔgroEL::kan^R) [pBAD-EL] (Ivic, A., Olden, D., Wallington, E. J. & Lund, P. A. (1997) Gene 194, 1-8), and TG1 (Gibson, T. J. (1984) Ph.D. thesis, University of Cambridge, U.K). Bacteriophage λb2cI (Zeilstra-Ryalls, J., Fayet, O., Baird, L. & Georgopoulos, C. (1993) J. Bacteriol. 175, 1134-1143) was used according to standard methods (Arber, W., Enquist, L., Hohn, B., Murray, N. E. & Murray, K. (1983) in Lambda II., ed. R. W. Hendrix, J. W. r., F. W. Stahl and R. A. Weisberg (Cold Spring Harbor Laboratory, Cold Spring Harbor, N.Y.), pp. 433-466); plaque formation was assayed at 30° C. T4D0, a derivative of bacteriophage T4 (Zeilstra-Ryalls, J., Fayet, O., Baird, L. & Georgopoulos, C. (1993) J. Bacteriol. 175, 1134-1143), was used according to standard methods (Karam, J. D. (1994) Molecular biology of bacteriophage T4. (American Society for Microbiology, Washington, D.C.)); plaque formation was assayed at 37° C.
Bacteriophage λ requires the chaperonins GroES and GroEL for protein folding during morphogenesis; bacteriophage T4 requires GroEL and Gp31, the latter being encoded by the bacteriophage genome (Zeilstra-Ryalls, J., Fayet, O. & Georgopoulos, C. (1991) Annu. Rev. Microbiol. 45, 301-325). Nine groE alleles which fail to support λ growth have been sequenced (Zeilstra-Ryalls, J., Fayet, O., Baird, L. & Georgopoulos, C. (1993) J. Bacteriol. 175, 1134-1143). We examined the ability of MC7, over-expressed from the constitutive tet promoter on a high-copy number vector (see FIG. 2), to complement three mutant groEL alleles for plaque formation by λ (b2cI) at 30° C. (Table 3) and T4 at 37° C. (Table 4).

[1] = target: T1, pig heart mitochondrial malate dehydrogenase (mtMDH) (Sus scrofa, UniProt P00346); assay: In vitro refolding and aggregation protection of heat- and dithiothreitol-denatured mtMDH; type: biochemical; conditions: reactivation at 25° C., chaperone alone, FIG. 7b
T1 construct: pig heart mitochondrial malate dehydrogenase (mtMDH; Boehringer-Mannheim); purchased Boehringer-Mannheim; host or cells: pig heart
T1 sequence (P00346 25-338): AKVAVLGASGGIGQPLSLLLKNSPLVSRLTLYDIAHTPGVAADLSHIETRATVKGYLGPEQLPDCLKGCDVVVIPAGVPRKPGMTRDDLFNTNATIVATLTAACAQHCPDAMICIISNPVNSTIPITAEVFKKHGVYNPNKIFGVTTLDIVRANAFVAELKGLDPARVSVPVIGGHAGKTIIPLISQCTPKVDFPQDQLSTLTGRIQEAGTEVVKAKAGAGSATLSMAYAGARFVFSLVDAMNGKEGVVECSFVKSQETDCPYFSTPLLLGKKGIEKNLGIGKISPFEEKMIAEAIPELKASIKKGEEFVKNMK
Description: In vitro refolding experiments. Refolding assays of pig heart mitochondrial malate dehydrogenase (mtMDH; Boehringer-Mannheim) and aggregation protection were carried out essentially as described (Peres Ben-Zvi, A. P., Chatellier, J., Fersht, A. R. & Goloubinoff, P. (1998) Proc. Natl. Acad. Sci. U.S.A. 95, 15275-15280). The concentrations of MC7 used were between 8-16 μM (reporter to protomer).

GroES = GroES (Escherichia coli, UniProt P0A6F9); conditions: ELISA; proteins coated at 10 μg/mL, GroES at 10 μg/mL, 25° C.
Description: GroES binding and competition assays by ELISA (enzyme-linked immunosorbant assay). Proteins were coated onto plastic microtitre plates (Maxisorb, Nunc) overnight at 4° C. at a concentration of 10 μg/mL in carbonate buffer (50 mM NaHCO3, pH 9.6). Plates were blocked for 1 hour at 25° C. with 2% Marvel in PBS (phosphate buffered saline: 25 mM NaH2PO4, 125 mM NaCl, pH 7.0). GroES, at 10 μg/mL in 100 μL of 10 mM Tris-HCl, 200 mM KCl, pH 7.4, were bound at 25° C. for 1 hour. Bound GroES were detected with rabbit anti-GroES antibodies (Sigma) followed by anti-rabbit immunoglobulins horseradish peroxidase conjugated antibodies (Sigma).

[2] = test system: mutant Huntingdon exon 1-expressing PC12 and SH-SY5Y cells; conditions: overexpression in PC12 and SH-SY5Y cells; D. Rubinsztein et al.; cited from earlier work

Chain of GroES (P0A6F9 whole entry): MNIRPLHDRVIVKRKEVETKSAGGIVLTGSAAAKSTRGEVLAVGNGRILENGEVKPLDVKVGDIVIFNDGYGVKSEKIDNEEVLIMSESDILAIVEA

Molecule | Effect of over-expression on plaque formation by bacteriophage λ in SV1 (groE^+) (in words) (bacteriophage λ (b2cI)) | rate of refolding of denatured mtMDH [1] | Binding to GroES (GroES) | cell death [2] | proportion of cells with inclusions [2]
B1 | had no effect on plaque counts | ineffective in enhancing the refolding rate | did not detectably bind | – | –
B2 | – | – | – | reduced cell death | reduced slightly but significantly
